From patent US20230382991A1 (COMMISSARIAT A L ENERGIE ATOMIQUE ET AUX ENERGIES …, published 2023) come the findings set out here.

The target of assay [1] is T1, cynomolgus macaque LILRB2.2-Fc fusion protein (cynomolgus macaque; human).
T1 construct: extracellular domain; Produced in HEK293T cells; also called mLILRB2.2; mLILRB2.2-Fc
As to the kind of experiment: biolayer interferometry (ForteBio), mAb on anti-mouse Fc sensor, LILR-Fc in solution, 1:1 global fit.

The target of assay [2] is T2, recombinant human LILRA1-Fc fusion protein (human, UniProt O75019 17-461).
T2 construct: hLILR-Fc purchased from R&D Systems; also called hLILRA1; hLILRA1-Fc; not shown: Fc part of the fusion bought from R&D Systems; captured by anti-human immunoglobulin
T2 sequence (O75019 17-461): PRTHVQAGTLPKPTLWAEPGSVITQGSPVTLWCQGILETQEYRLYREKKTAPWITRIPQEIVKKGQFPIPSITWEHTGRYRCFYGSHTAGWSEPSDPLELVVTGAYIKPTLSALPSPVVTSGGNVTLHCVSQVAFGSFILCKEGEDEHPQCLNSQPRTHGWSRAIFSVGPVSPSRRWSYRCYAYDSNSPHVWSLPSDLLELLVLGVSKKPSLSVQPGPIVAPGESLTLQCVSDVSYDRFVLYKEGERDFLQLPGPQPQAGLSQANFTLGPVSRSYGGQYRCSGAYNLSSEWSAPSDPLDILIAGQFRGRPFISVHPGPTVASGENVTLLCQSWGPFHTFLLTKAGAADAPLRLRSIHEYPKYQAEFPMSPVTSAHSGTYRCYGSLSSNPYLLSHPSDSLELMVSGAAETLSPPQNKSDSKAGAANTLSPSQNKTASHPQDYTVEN
Described as above.

Assay [3] deals with T3, recombinant human LILRA3-Fc fusion protein (human, UniProt Q8N6C8 24-439).
T3 construct: hLILR-Fc purchased from R&D Systems; also called hLILRA3; hLILRA3-Fc; not shown: Fc part of the fusion bought from R&D Systems
T3 sequence (Q8N6C8 24-439): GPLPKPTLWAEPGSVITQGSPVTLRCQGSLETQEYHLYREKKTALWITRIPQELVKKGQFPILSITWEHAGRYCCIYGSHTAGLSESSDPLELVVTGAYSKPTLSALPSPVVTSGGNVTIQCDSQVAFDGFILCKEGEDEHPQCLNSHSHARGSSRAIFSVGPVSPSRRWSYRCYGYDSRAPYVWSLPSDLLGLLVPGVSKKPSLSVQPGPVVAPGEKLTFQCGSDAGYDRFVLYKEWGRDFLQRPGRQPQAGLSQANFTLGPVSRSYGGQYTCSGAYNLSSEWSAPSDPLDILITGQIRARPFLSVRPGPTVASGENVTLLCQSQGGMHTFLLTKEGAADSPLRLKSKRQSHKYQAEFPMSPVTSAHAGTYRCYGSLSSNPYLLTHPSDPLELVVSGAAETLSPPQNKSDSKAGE
The description is as above.

For assay [4], the target named is T4, recombinant human LILRB1-Fc fusion protein (human, UniProt Q8NHL6 24-458).
T4 construct: hLILR-Fc purchased from R&D Systems; also called hLILRB1-Fc; hLILRB1; not shown: Fc part of the fusion bought from R&D Systems; detected with anti-human IgG
T4 sequence (Q8NHL6 24-458): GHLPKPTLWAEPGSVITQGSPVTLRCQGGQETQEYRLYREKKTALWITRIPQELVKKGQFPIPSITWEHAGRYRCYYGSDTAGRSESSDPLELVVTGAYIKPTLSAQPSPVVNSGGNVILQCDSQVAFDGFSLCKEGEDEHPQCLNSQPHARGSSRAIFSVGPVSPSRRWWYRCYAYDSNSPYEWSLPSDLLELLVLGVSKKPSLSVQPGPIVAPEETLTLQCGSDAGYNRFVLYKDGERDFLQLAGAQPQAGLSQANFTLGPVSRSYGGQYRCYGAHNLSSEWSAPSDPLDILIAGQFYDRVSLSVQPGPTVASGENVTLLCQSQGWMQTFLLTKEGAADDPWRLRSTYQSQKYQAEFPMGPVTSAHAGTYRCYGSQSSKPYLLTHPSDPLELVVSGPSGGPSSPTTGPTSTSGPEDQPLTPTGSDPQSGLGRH
The description is as above.

Assay [5] concerns the target T5, cynomolgus macaque LILRB1.1-Fc fusion protein (cynomolgus macaque; human).
T5 construct: extracellular domain; Produced in HEK293T cells; also called mLILRB1.1; mLILRB1.1-Fc
The description is as above.

For assay [6], the target named is T6, cynomolgus macaque LILRB2.1-Fc fusion protein (cynomolgus macaque; human).
T6 construct: extracellular domain; Produced in HEK293T cells; also called mLILRB2.1; mLILRB2.1-Fc
The description is as above.

In assay [7] the target is T7, cynomolgus macaque LILRB1.2-Fc fusion protein (cynomolgus macaque; human).
T7 construct: extracellular domain; Produced in HEK293T cells; also called mLILRB1.2; mLILRB1.2-Fc
The assay is described as above.

Assay [8] addresses T8, recombinant human LILRB5-Fc fusion protein (human, UniProt O75023 24-458).
T8 construct: not shown: Fc part of the fusion bought from R&D Systems
The assay can be described thus: EIA on hLILR-Fc captured by goat anti-human Ig on the plate; AChE-labelled goat anti-mouse antibody; absorbance (axis printed 'DO 141nm'); no blank curve on the sheet.

The target of assay [9] is T9, recombinant human LILRA5-Fc fusion protein (human, UniProt A6NI73 42-268).
T9 construct: not shown: Fc part of the fusion bought from R&D Systems
T9 sequence (A6NI73 42-268): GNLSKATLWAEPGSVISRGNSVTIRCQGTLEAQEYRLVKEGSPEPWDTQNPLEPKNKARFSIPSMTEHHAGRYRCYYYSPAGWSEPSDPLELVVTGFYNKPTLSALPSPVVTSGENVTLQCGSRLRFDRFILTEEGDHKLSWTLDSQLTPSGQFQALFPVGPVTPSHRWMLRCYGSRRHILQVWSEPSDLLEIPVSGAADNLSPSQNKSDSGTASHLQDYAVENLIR
Described as above.

Assay [10] addresses T10, recombinant human LILRA2-Fc fusion protein (human, UniProt Q8N149 24-449).
T10 construct: not shown: Fc part of the fusion bought from R&D Systems
The description is as above.

Assay [11] deals with T11, recombinant human LILRB4-Fc fusion protein (human, UniProt Q8NHJ6 22-259).
T11 construct: not shown: Fc part of the fusion bought from R&D Systems
Described as above.

The target in assay [12] is T12, recombinant human LILRB3-Fc fusion protein (human, UniProt O75022 24-443).
T12 construct: not shown: Fc part of the fusion bought from R&D Systems
T12 sequence (O75022 24-443): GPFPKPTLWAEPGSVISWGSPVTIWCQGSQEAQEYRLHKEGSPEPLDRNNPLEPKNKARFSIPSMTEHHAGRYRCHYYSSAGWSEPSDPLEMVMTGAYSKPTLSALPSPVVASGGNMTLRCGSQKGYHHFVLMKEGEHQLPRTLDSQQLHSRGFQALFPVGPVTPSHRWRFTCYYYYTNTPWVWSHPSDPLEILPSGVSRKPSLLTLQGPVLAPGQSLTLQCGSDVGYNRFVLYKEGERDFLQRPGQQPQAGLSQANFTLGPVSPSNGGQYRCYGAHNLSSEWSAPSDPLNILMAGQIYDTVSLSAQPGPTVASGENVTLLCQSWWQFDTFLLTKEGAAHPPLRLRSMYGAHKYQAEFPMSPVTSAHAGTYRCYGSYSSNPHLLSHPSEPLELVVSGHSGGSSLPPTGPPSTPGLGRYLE
Described as above.

Assay [13] deals with T13, recombinant human LILRA4-Fc fusion protein (human, UniProt P59901 24-446).
T13 construct: not shown: Fc part of the fusion bought from R&D Systems
T13 sequence (P59901 24-446): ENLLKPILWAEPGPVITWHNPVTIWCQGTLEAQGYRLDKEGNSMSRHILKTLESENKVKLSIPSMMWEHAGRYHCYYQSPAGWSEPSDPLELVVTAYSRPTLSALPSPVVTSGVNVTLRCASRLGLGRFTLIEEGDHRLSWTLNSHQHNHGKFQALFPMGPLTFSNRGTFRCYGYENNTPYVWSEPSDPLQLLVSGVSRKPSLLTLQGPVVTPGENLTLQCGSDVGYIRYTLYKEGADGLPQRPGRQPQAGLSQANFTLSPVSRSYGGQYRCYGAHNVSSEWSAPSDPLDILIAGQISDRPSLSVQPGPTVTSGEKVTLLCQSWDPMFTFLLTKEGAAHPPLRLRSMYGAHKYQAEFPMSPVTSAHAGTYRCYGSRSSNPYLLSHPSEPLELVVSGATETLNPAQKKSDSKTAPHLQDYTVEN
The description is as above.

The target in assay [14] is T14, human LILRB1 expressed on stably transduced CHO cells (human, UniProt Q8NHL6 24-650).
T14 construct: whole, on cells; also called hLILRB1; CHO hLILRB1 cell line
T14 sequence (Q8NHL6 24-650): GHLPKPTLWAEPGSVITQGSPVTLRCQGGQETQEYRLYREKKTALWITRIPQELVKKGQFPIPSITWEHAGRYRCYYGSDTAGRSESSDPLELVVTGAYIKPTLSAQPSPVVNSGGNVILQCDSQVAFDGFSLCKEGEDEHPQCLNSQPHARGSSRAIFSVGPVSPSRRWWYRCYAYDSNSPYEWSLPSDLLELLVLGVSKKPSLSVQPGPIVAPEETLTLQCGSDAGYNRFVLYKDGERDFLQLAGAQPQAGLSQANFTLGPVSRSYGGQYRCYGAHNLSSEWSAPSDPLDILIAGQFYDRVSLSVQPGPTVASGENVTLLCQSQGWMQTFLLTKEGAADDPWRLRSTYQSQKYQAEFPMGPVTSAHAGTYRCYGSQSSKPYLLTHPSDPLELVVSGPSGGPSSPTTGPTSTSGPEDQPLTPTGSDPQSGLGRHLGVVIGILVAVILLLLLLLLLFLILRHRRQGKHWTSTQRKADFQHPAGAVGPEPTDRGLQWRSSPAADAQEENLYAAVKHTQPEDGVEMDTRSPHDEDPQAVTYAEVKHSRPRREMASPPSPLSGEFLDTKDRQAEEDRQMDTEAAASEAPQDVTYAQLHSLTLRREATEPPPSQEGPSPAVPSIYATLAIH
As to the kind of experiment: flow cytometry, same method as FIG. 1B (CHO cells expressing human LILRB1).

Assay [15] deals with T15, recombinant human LILRB2-Fc fusion protein (human, UniProt Q8N423 22-457).
T15 construct: hLILR-Fc purchased from R&D Systems; also called hLILRB2-Fc; hLILRB2; not shown: Fc part of the fusion bought from R&D Systems; detected with anti-human IgG
T15 sequence (Q8N423 22-457): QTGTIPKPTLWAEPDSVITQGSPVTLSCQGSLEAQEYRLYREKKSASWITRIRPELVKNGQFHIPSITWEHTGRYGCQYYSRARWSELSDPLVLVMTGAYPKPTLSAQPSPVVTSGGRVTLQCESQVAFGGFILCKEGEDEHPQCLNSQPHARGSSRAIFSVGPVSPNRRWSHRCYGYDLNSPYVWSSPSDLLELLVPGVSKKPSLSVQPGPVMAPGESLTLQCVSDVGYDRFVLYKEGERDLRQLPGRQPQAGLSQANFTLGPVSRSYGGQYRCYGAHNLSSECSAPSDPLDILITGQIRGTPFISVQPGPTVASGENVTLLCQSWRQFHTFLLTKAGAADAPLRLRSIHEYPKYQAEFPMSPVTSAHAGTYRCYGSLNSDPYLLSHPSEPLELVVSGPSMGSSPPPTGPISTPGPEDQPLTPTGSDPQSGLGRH
As to the kind of experiment: biolayer interferometry (ForteBio), mAb on anti-mouse Fc sensor, LILR-Fc in solution, 1:1 global fit. A general note: BLI is a label-free optical method that tracks binding on a fibre tip over time.

T10 sequence (Q8N149 24-449): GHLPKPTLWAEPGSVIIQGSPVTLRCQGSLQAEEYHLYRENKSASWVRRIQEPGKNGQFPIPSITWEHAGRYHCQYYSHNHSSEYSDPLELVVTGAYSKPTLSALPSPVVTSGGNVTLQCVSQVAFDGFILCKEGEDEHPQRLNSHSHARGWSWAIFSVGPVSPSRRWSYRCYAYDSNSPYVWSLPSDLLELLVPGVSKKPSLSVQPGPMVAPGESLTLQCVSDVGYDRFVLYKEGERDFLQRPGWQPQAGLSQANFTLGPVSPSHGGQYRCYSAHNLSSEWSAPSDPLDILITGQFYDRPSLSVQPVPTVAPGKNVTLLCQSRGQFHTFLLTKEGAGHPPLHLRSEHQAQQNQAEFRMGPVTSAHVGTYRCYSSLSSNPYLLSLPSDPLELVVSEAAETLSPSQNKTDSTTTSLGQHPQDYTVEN
T8 sequence (O75023 24-458): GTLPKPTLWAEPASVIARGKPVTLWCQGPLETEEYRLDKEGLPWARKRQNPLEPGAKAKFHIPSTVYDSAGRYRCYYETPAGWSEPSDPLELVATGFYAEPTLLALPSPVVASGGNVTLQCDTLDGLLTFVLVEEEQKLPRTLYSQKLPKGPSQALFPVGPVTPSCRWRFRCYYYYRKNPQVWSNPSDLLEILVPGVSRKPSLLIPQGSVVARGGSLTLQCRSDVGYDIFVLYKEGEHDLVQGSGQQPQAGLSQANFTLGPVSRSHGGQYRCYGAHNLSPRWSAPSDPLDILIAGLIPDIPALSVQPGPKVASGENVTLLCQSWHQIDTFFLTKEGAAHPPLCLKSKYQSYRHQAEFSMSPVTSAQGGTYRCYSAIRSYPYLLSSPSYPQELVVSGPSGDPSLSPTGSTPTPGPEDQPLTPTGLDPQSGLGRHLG

B1: B1.2.2 monoclonal antibody (antibody, V domains shown)
VH: EVQLVESGGGLVKPGGSLKLSCAASGFTFSDYGMHWVRQAPEKGLEWVAYISSGSSTSYYADTVKGRFTISRDDAKNTLFLQMTSLRSEDTAMYYCARPGSNWDVYYAMDYWGQGTSVTVSS
VL: DIVLTQSPASLAVSLGQRATISCRASQSVSTSSYSYMHWYQQKPGQPPKLLIKNASNLESGVPARFSGSGSGTDFTLNIHPVEEEDTATYYCQHSWEIPFTFGGGTKLEIK
notes: Mouse monoclonal antibody purified from hybridoma supernatant (immunisation with mLILRB1.2-Fc); also called B1.2.2 mAb; clone 20G10
For orientation: Kd means the concentration at which binding is half-saturated. In the case of B1, the Kd was found to be 0.071 nM in [1]; 0.37 nM in assay [2]; 3.2 nM in assay [3]; 0.87 nM in assay [4]; 3.6 nM in assay [5]; 0.48 nM in [6]. For the same molecule, binding in assay [7] was put at a Kd of 0.12 nM. The binding result in [8], in assay [9], in assay [10], in assay [11], in assay [12] and in assay [13] was “no binding (tested: 10 µg/ml)” in each case.

B2: BF14 humanized antagonist antibody of Family AB2 (antibody, V domains shown)
VH: QVQLVESGGGVVQPGRSLRLSCAASGFTFSDYGMHWVRQAPGKGLEWVAYISSGSSTSYYADTVKGRFTISRDDSKNTLYLQMNSLRAEDTAVYYCARPGSNWDVYYAMDYWGQGTLVTVSS
VL: DIQLTQSPSSLSASVGDRVTITCRASQSVSTSSYSYMHWYQQKPGKAPKLLIKNASNLESGVPSRFSGSGSGTDFTLTISSLQPEDFATYYCQHSWEIPFTFGPGTKVDIK
As to B2, the binding result in assay [14] is reported as “binds”.

B3: B1.2.1 monoclonal antibody (antibody, V domains shown)
VH: EVQLVESGGGLVQPKGSLKLSCAASGFTFNTHAMHWVRQAPGKGLEWVARIRSKSSNYATFYADSVKDRFTISRDDSQSMLYLQMNNLKTEDTAIYFCVMVYYGNSPYYSMDYWGQGTSVTVSS
VL: NIVMTQSPKSMSMSVGERVTLSCKASENVGTYVSWYQQKPEQSPKLLIYGASNRYTGVPDRFTGSGSATDFTLIINNIQAEDLADYHCGQSYSSPLTFGAGTKLELK
notes: Mouse monoclonal antibody purified from hybridoma supernatant (immunisation with mLILRB1.2-Fc); also called B1.2.1 mAb
As to B3, the Kd in [1] turned out to be 2.9 nM; in assay [2], 0.73 nM; in [3] it was 1.3 nM; in assay [4], 0.53 nM; in assay [5], 0.0039 nM; in assay [15] it was 0.14 nM. Besides, in [7], the Kd amounted to 0.014 nM. Also, the binding result in [8], in [9], in [10], in assay [11], in assay [12] and in [13] was “no binding (tested: 10 µg/ml)” throughout.
